Reference: patent US20210239714A1, “TEST METHOD FOR OLFACTORY MUCOSA OR OLFACTORY MUCUS IN MAMMALS” (Ajinomoto Co., Inc., priority 2018, published 2021)

Test system: olfactory receptor (OR X)
Assay: Luciferase reporter assay using olfactory receptor-expressing HEK293T cells, effect of concurrent addition of LCN15
Type: cell-based, human
Conditions: mixed solution of isovaleric acid (30 μM) and LCN15 (1 μM) compared to isovaleric acid (30 μM) alone; 3 hours, 37° C.
Description: A human olfactory receptor gene was cloned by a PCR method using a human olfactory receptor gene purchased from TrueClone cDNA Clone Collection (OriGene) as a template base on sequence information registered in GenBank. Each gene amplified by the PCR method was subcloned into downstream of a Rho tag sequence of a Rho-pME18S vector (K. Kajiya et al., Journal of Neuroscience, 15 Aug. 2001, 21 (16) 6018-6025, which is incorporated herein by reference in its entirety) using EcoRI and XhoI sites to obtain an expression vector for the human olfactory receptor.
HEK293T cells that expressed the olfactory receptor (OR X) was prepared by the following procedure. […]
The olfactory receptor (OR X) expressed on HEK293T cells is conjugated with Golf to activate adenylate cyclase, thereby increases an amount of intracellular cAMP. In this Example, the measurement for response of the olfactory receptor to a test substance employed luciferase reporter gene assay in which increase of the amount of intracellular cAMP was monitored as increase of a luminescence value derived from firefly luciferase. […] In conjugation with this, a luminescence value derived from Renilla luciferase was used as an internal standard for correcting errors of a gene transfer efficiency and a cell number in each well. […]

B1: lipocalin 15 (protein, listed as Homo sapiens)
chain: MEVLLQPDFNAEKFSGLWYVVSMASDCRVFLGKKDHLSMSTRAIRPTEEGGLHVHMEFPGADGCNQVDAEYLKVGSEGHFRVPALGYLDVRIVDTDYSSFAVLYIYKELEGALSTMVQLYSRTQDVSPQALKSFQDFYPTLGLPKDMMVMLPQSDACNPESKEAP
notes: secreted protein produced in the olfactory mucosa and secreted into the olfactory mucus; recombinant hLCN15 prepared in E. coli
response intensity of the olfactory receptor (Luc/hRLuc value): more enhanced
